Data from patent publication US20200079850A1 (SUTRO BIOPHARMA, published 2020).
Positions count from the first letter of the chain named.

T1: human LAG3 expressed on the cell surface (CHO-LAG3, 293T-LAG3 cells) (human, UniProt P18627 23-525)
T1 construct: Stably transfected CHO or HEK293T cells; also called Human LAG3 (CHO); Human LAG3 (293T)
T1 sequence: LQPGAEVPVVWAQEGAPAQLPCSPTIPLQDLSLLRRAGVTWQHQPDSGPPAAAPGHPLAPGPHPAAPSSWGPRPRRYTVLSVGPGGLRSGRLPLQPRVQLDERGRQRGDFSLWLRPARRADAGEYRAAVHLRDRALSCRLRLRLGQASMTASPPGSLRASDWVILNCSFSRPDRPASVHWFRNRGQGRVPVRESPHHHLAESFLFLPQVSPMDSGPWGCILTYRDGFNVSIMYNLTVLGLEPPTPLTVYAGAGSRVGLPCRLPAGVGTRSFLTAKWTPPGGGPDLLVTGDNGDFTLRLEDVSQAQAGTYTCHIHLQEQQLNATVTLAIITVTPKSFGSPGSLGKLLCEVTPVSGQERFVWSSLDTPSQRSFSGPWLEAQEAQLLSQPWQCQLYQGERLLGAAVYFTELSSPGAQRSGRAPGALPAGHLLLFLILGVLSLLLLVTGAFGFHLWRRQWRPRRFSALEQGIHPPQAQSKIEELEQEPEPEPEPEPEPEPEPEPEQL

T2: human LAG3-Fc (R&D Systems #2319-L3) (human, UniProt P18627 23-450)
T2 construct: Bought protein; also called Human LAG3 (Biacore)
T2 sequence: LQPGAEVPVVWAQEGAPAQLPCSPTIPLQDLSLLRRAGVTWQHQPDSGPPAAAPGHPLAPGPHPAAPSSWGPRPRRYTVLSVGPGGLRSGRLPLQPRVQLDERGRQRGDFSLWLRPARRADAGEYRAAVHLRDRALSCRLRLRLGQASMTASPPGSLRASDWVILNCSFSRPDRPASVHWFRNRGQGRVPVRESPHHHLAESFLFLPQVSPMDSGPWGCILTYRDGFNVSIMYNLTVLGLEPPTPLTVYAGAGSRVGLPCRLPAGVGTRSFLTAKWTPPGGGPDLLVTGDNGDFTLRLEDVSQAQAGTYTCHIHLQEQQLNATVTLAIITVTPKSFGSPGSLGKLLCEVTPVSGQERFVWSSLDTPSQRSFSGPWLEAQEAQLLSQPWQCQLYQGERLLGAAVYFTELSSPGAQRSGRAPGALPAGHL

T3: recombinant human LAG3 protein (rhLAG3), HIS-tagged (ACRO) or biotinylated (R&D Cat #2319-C3) (human, UniProt P18627 23-450, biotinylated in part of the assays)
T3 sequence: T2 sequence

B1: SRP1496-B08 (antibody, V domains shown)
VH: EVQLVESGGGLVQPGGSLRLSCAASGFNINDTYIHWVRQAPGKGLEWVGIIDPYDGATDYADSVKGRFTISADTSKNTAYLQMNSLRAEDTAVYYCAREIFGFYWNPFDYWGQGTLVTVSS
VL: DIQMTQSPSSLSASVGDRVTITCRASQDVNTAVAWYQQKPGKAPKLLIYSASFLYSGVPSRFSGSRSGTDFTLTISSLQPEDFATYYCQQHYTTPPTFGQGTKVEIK
B2: SRP1496-A04 (antibody, V domains shown)
VH: B1 VH
VL: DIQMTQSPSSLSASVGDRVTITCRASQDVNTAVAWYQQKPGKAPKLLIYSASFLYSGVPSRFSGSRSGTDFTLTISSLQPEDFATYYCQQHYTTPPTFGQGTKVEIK
B3: SRP1496-A03 (antibody, V domains shown)
VH: B1 VH
VL: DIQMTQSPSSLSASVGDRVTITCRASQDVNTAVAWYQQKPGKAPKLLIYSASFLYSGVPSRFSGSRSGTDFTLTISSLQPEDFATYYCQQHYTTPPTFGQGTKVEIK
B4: SRP1627-A11 (scFv, V domains shown)
VH: QVQLVQSGAEVKKPGSSVKVSCKASGFNINDYFMHWVRQAPGQGLEWIARIDPWNGDTEYAPKFQGRVTITADESTSTAYMELSSLRSEDTAVYYCGMSDALDYWGQGTLVTVSS
VL: DVVMTQSPLSLPVTLGQPASISCKSSQSLLDSDGKTYLNWFQQRPGQSPRRLIYLVSKLDSGVPDRFSGSGSGTDFTLKISRVEAEDVGVYYCWHGINFPQTFGQGTKVEIK
B5: SRP1627-B01 (scFv, V domains shown)
VH: B4 VH with N30T, Y32L, F33Y, V68A, G97I, M98A, D100E, A101M, L102V
VL: B4 VL with W94S, H95T, G96Y, I97S, N98H
B6: h5G11-2 (scFv, V domains shown)
VH: B4 VH with N30K, F33Y, R50W, W54E, G97N, M98A, S99P
VL: B4 VL with H95Q, I97S, N98H
B7: SRP1627-A02 (scFv, V domains shown)
VH: B4 VH
VL: B4 VL with W94S, I97N, N98P, F99V
B8: SRP1648-B07 (antibody, V domains shown)
VH: B1 VH with N30A, Y33F, A57D, F101L
VL: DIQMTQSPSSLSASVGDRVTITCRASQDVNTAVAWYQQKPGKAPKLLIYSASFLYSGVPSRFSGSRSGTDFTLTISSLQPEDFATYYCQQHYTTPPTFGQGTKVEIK
notes: IgG scaffold with human constant domains
B9: SRP1648-E02 (antibody, V domains shown)
VH: B1 VH with T32N, A57F, D59A, I100S, F101I, W105L
VL: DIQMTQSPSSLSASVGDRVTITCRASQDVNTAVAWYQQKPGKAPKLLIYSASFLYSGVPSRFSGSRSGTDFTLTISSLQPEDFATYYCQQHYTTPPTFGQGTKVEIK

Each binder was assayed against T1, human LAG3 expressed on the cell … (assay: flow cytometry, 293T cells expressing human LAG3).
Description: LAG3 antibody variants were tested in a fluorescence-activated cell sorting (FACS) cell-binding assay. Chinese Hamster Ovary (CHO) cells or HEK293T cells stably expressing the human target molecule LAG3 on the cell surface (CHO-LAG3, 293T-LAG3) were used to screen for cell binders by flow cytometry. Parental CHO or 293T cells were used as a negative control to determine background-binding levels. Cells were cultured in RPMI with 10% FCS Penicillin/Streptomycin (or Pen/Strep) and glutamine (or Gln) and split every 3-4 days at 10⁵ cells/ml.
A mix of parental CHO cells and CHO-LAG3 cells (or 293T and 293T-LAG3 cells) was prepared as follows: Parental CHO cells were washed 2× in PBS then incubated in PBS containing 1 nM CellTrace™ Oregon Green488® (Life Technologies) at 37° C. for 30 minutes. […] Parental CHO cells and CHO-LAG3 cells were then mixed to obtain a 1:1 cell suspension and seeded at 100 μl per well on 96 well polypropylene plates. Plates were spun at 1500 rpm for 5 minutes and cell pellets were suspended in 50 μl FACS buffer containing 6-12 point dilutions of anti-LAG3 variants starting from concentrations of ˜100-200 nM antibody, dispensed using BioMekFX (Beckman Coulter). Cells were then incubated on ice for 1 hr, washed with FACS buffer and incubated for 1 hr on ice with 50 μl FACS buffer containing 2.5 μg/ml R-Phycoerythrin-conjugated Goat Anti-Human IgG (Jackson ImmunoResearch) or AF647-conjugated Goat Anti-mouse IgG (Life Technologies) dispensed using BioMekFX (Beckman Coulter). Cells were then washed 2× with FACS buffer and fixed for 10 minutes in 200 μl PBS with 2% PFA prior to fluorescence detection. Samples were acquired using a Beckton Dickinson LSRII FACS. Mean Fluorescence Intensity of LAG3 antibody binding was analyzed using Tree Star, Inc. FlowJo® software.
Binder B1 has a Kd of 39.4 nM.
Work on B2 yielded a Kd of 35 nM.
For B3, the Kd was 40.6 nM.
B4 was tested, and the Kd was 0.74 nM.
In the case of B5, the Kd is reported as 0.19 nM.
Binder B6 has a Kd of 78 nM.
For B7, the Kd was 0.97 nM.

What follows are binders tested against T2, human LAG3-Fc (R&D Systems #2319-L3) (assay: SPR (Biacore), antibody captured by anti-Flag, LAG3-Fc as analyte, 25 C).
Description: Anti-Flag M2 IgG (Sigma-Aldrich # F9291) was immobilized onto a CMS chip (GE Life Sciences) using amine coupling chemistry (from Amine Coupling Kit, GE Life Sciences). The immobilization steps were carried out at a flow rate of 25 μL/min in 1×HBS-EP+ buffer (GE Life Sciences; 10×Stock diluted before use). The sensor surfaces were activated for 7 min with a mixture of NHS (0.05 M) and EDC (0.2 M). The Anti-Flag M2 IgG was injected over all 4 flow cells at a concentration of 25 μg/mL in 10 mM sodium acetate, pH 4.5, for 7 min. Ethanolamine (1 M, pH 8.5) was injected for 7 min to block any remaining activated groups. An average of 12,000 response units (RU) of capture antibody was immobilized on each flow cell.
Off-rate and kinetic binding experiments were performed at 25° C. using 1×HBS-EP+buffer. Test and control antibodies were injected over the Anti-Flag surface at concentrations of 5-10 μg/mL for 12 seconds at a flow rate of 10 μL/min on flow cells 2, 3 and 4, followed by a buffer wash for 30 seconds at the same flow rate. Kinetic characterization of antibody samples was carried out with a single concentration of antigen (for off-rate ranking) or a dilution series of antigen (for kinetic characterization) and 1 injection of 0 nM antigen. After capturing ligand (antibody) on the anti-Flag surface, the analyte (human LAG3-Fc, R&D Systems #2319-L3; or cynomolgus LAG3-Fc, accession # NC 022282.1) was bound at 50, 25, 12.5, 6.25, and 0 nM for 180 seconds, followed by a 600 second dissociation phase at a flow rate of 50 μl/min Between each ligand capture and analyte binding cycle, regeneration was carried out using 2 injections of 10 mM glycine pH 2.0 for 30 seconds at 30 μL/min, followed by a 30 second buffer wash step.
The data were fit with the Biacore T200 Evaluation software, using a 1:1 Langmuir binding model. KD (affinity, nM) was determined as a ratio of the kinetic rate constants calculated from the fits of the association and dissociation phases.
B1 showed a Kd of 21.3 nM, a koff of 0.0279 s⁻¹ and a kon of 1.31e+06 M⁻¹ s⁻¹.
B2 showed a Kd of 15.2 nM, a koff of 0.0196 s⁻¹ and a kon of 1.29e+06 M⁻¹ s⁻¹.
Binder B3 has a Kd of 18.9 nM, a koff of 0.0234 s⁻¹ and a kon of 1.24e+06 M⁻¹ s⁻¹.
Work on B8 yielded a Kd of 2.46 nM, a koff of 0.0275 s⁻¹ and a kon of 1.12e+07 M⁻¹ s⁻¹.
Binder B9 has a Kd of 2.27 nM, a koff of 0.122 s⁻¹ and a kon of 5.35e+07 M⁻¹ s⁻¹.
In the case of B4, the Kd is reported as 13.5 nM, the koff is reported as 0.00422 s⁻¹ and the kon is reported as 312000 M⁻¹ s⁻¹.
B5 showed a Kd of 14.7 nM, a koff of 0.0152 s⁻¹ and a kon of 1.04e+06 M⁻¹ s⁻¹.
B6 gave a Kd of 863 nM, a koff of 0.0023 s⁻¹ and a kon of 2670 M⁻¹ s⁻¹.
With B7 the Kd was 43.3 nM, the koff was 0.071 s⁻¹ and the kon was 1.64e+06 M⁻¹ s⁻¹.

The binders below were run against T3, recombinant human LAG3 protein … (assay: flow cytometry competition, rhLAG3 binding to Daudi cells; competitor MHCII).
Description: DAUDI cells express high levels of Major Histocompatibility Class II (MHCII) molecules, a natural ligand for LAG3, on the cell surface. DAUDI cells were used to screen for antibodies that inhibit binding of HIS-tagged (ACRO) or biotinylated recombinant human LAG3 protein (rhLAG3) to MHCII expressed on the cell surface.
DAUDI cells were cultured in RPMI w/10% FCS Pen/Strep and Gln and split every 3-4 days at 10^5 cells/ml. Cells were washed 2× with FACS buffer (PBS w/2% FCS), […] at a final concentration of 1×10⁶ cells/ml and seeded at 100 μl per well on 96 well polypropylene plates. Plates were spun at 1500 rpm for 5 minutes and cell pellets were suspended in 50 μl FACS buffer containing 8 point 1:3 dilutions (2× concentrated) of anti-LAG3 antibody variants, starting from high concentration of −600 nM. 50 μl FACS buffer containing 10-20 μg/ml of the HIS-tagged rhLAG3 protein or 40 μg/ml of the biotinylated rhLAG3 protein were then added to the cells. Cell were then incubated in ice for 1 hr, washed with FACS buffer and incubated for 1 hr in ice with 50 μl FACS buffer containing 2 μg/ml R-Phycoerythrin-conjugated Streptavidin (eBiosciences) or 1 μg/ml R-Phycoerythrin-conjugated anti-HIS IgG (Abcam). Cell were washed 2× with FACS buffer and fixed for 10 minutes in 200 μl PBS w/2% PFA prior to acquisition.
B1 gave an IC50 of 28.6 nM.
Binder B2 has an IC50 of 55.8 nM.
In the case of B3, the IC50 is reported as 41.3 nM.
B8 was tested, and the IC50 was 4.5 nM.
For B9, the IC50 was 4.1 nM.
B4 was tested, and the IC50 was 1.6 nM.
B5 showed an IC50 of 0.4 nM.
Binder B7 has an IC50 of 1.7 nM.
